± gives the standard error. This sample holds only a part of the variants without activity.
B1: glmS ribozyme (parent)
chain: AUAAAAGCGCCAGAACUACAGAAAUGUAGUUGACGAGGAGGAGGUUUAUCGAAUUUUCGGCGGAUGCCUCCAAA

Columns and labels:
Conditions in all cases: with glucosamine-6-phosphate
glucosamine-6-phosphate [1] = variants of: B1; assay: self-cleavage kobs at 40 uM GlcN6P; higher = faster cleavage; RNA array
Summary of the method: (§1)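 A hybridised Cy3 probe tracked barcoded ribozyme variants, transcribed in situ by E. coli RNA polymerase on sequenced MiSeq chips, at 37 °C. The variants received 40 μM to 10 mM glucosamine-6-phosphate in HEPES/KCl/Mg(OAc)2 buffer. kobs came from decay fits and kcat and KM from weighted Michaelis–Menten fits.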

glucosamine-6-phosphate [2] = variants of: B1; assay: self-cleavage kobs at 2500 uM GlcN6P; higher = faster cleavage; RNA array
Summary of the method: as §1

glucosamine-6-phosphate [3] = variants of: B1; assay: self-cleavage kobs at 10000 uM GlcN6P; higher = faster cleavage; RNA array
Summary of the method: as §1

glucosamine-6-phosphate [4] = variants of: B1; assay: self-cleavage kobs at 160 uM GlcN6P; higher = faster cleavage; RNA array
Summary of the method: as §1

glucosamine-6-phosphate [5] = variants of: B1; assay: self-cleavage kobs at 640 uM GlcN6P; higher = faster cleavage; RNA array
Summary of the method: as §1

With G29C A42U U65C the “self-cleavage kobs at 40 uM GlcN6P” value (glucosamine-6-phosphate [1]) was under 1e-05 s⁻¹, the “self-cleavage kobs at 2500 uM GlcN6P” value (glucosamine-6-phosphate [2]) was under 1e-05 s⁻¹ and the “self-cleavage kobs at 10000 uM GlcN6P” value (glucosamine-6-phosphate [3]) was under 1e-05 s⁻¹.

U30C G43A was tested, and the “self-cleavage kobs at 40 uM GlcN6P” value (glucosamine-6-phosphate [1]) was under 1e-05 s⁻¹, the “self-cleavage kobs at 160 uM GlcN6P” value (glucosamine-6-phosphate [4]) was under 1e-05 s⁻¹ and the “self-cleavage kobs at 2500 uM GlcN6P” value (glucosamine-6-phosphate [2]) was under 1e-05 s⁻¹. For the same variant, the “self-cleavage kobs at 10000 uM GlcN6P” value (glucosamine-6-phosphate [3]) was under 1e-05 s⁻¹.

For C8U G38U U49G C50A C68G, the “self-cleavage kobs at 40 uM GlcN6P” value (glucosamine-6-phosphate [1]) was 0.00105 ± 0.00026 s⁻¹ and the “self-cleavage kobs at 10000 uM GlcN6P” value (glucosamine-6-phosphate [3]) was 0.000545 ± 0.00014 s⁻¹.

For G29U G35U A36G, the “self-cleavage kobs at 40 uM GlcN6P” value (glucosamine-6-phosphate [1]) was under 1e-05 s⁻¹.

With C11G U54C the “self-cleavage kobs at 40 uM GlcN6P” value (glucosamine-6-phosphate [1]) was under 1e-05 s⁻¹.

C19A G51A was tested, and the “self-cleavage kobs at 40 uM GlcN6P” value (glucosamine-6-phosphate [1]) was under 1e-05 s⁻¹ and the “self-cleavage kobs at 10000 uM GlcN6P” value (glucosamine-6-phosphate [3]) was under 1e-05 s⁻¹.

With U31A G37C U69G the “self-cleavage kobs at 40 uM GlcN6P” value (glucosamine-6-phosphate [1]) was under 1e-05 s⁻¹.

C16U G29C G37A G44A was tested, and the “self-cleavage kobs at 40 uM GlcN6P” value (glucosamine-6-phosphate [1]) was under 1e-05 s⁻¹.

With C8U G29C the “self-cleavage kobs at 40 uM GlcN6P” value (glucosamine-6-phosphate [1]) was under 1e-05 s⁻¹, the “self-cleavage kobs at 160 uM GlcN6P” value (glucosamine-6-phosphate [4]) was under 1e-05 s⁻¹ and the “self-cleavage kobs at 640 uM GlcN6P” value (glucosamine-6-phosphate [5]) was under 1e-05 s⁻¹. The “self-cleavage kobs at 2500 uM GlcN6P” value (glucosamine-6-phosphate [2]) was under 1e-05 s⁻¹ and the “self-cleavage kobs at 10000 uM GlcN6P” value (glucosamine-6-phosphate [3]) was under 1e-05 s⁻¹.

With A53G U69A the “self-cleavage kobs at 40 uM GlcN6P” value (glucosamine-6-phosphate [1]) was 0.000147 ± 4e-05 s⁻¹, the “self-cleavage kobs at 640 uM GlcN6P” value (glucosamine-6-phosphate [5]) was 0.000407 ± 0.0001 s⁻¹ and the “self-cleavage kobs at 2500 uM GlcN6P” value (glucosamine-6-phosphate [2]) was 0.000305 ± 8.4e-05 s⁻¹. The “self-cleavage kobs at 10000 uM GlcN6P” value (glucosamine-6-phosphate [3]) was 8.92e-05 ± 2.1e-05 s⁻¹.

For G13C G29U A48U, the “self-cleavage kobs at 40 uM GlcN6P” value (glucosamine-6-phosphate [1]) was under 1e-05 s⁻¹ and the “self-cleavage kobs at 640 uM GlcN6P” value (glucosamine-6-phosphate [5]) was under 1e-05 s⁻¹.

With G29U A36G A48C C71G the “self-cleavage kobs at 40 uM GlcN6P” value (glucosamine-6-phosphate [1]) was under 1e-05 s⁻¹.

In the case of C11A U46A, the “self-cleavage kobs at 40 uM GlcN6P” value (glucosamine-6-phosphate [1]) is reported as under 1e-05 s⁻¹, the “self-cleavage kobs at 640 uM GlcN6P” value (glucosamine-6-phosphate [5]) is reported as under 1e-05 s⁻¹ and the “self-cleavage kobs at 10000 uM GlcN6P” value (glucosamine-6-phosphate [3]) is reported as under 1e-05 s⁻¹.

In the case of A33U A36G G41C A53G, the “self-cleavage kobs at 40 uM GlcN6P” value (glucosamine-6-phosphate [1]) is reported as under 1e-05 s⁻¹ and the “self-cleavage kobs at 10000 uM GlcN6P” value (glucosamine-6-phosphate [3]) is reported as under 1e-05 s⁻¹.

In the case of C10A G66U, the “self-cleavage kobs at 40 uM GlcN6P” value (glucosamine-6-phosphate [1]) is reported as under 1e-05 s⁻¹ and the “self-cleavage kobs at 160 uM GlcN6P” value (glucosamine-6-phosphate [4]) is reported as under 1e-05 s⁻¹.

In the case of G13A G35A, the “self-cleavage kobs at 40 uM GlcN6P” value (glucosamine-6-phosphate [1]) is reported as under 1e-05 s⁻¹, the “self-cleavage kobs at 160 uM GlcN6P” value (glucosamine-6-phosphate [4]) is reported as under 1e-05 s⁻¹ and the “self-cleavage kobs at 640 uM GlcN6P” value (glucosamine-6-phosphate [5]) is reported as under 1e-05 s⁻¹. The “self-cleavage kobs at 2500 uM GlcN6P” value (glucosamine-6-phosphate [2]) was under 1e-05 s⁻¹.

With G7A A39G C58G the “self-cleavage kobs at 40 uM GlcN6P” value (glucosamine-6-phosphate [1]) was under 1e-05 s⁻¹.

With A15G G35U the “self-cleavage kobs at 40 uM GlcN6P” value (glucosamine-6-phosphate [1]) was under 1e-05 s⁻¹, the “self-cleavage kobs at 160 uM GlcN6P” value (glucosamine-6-phosphate [4]) was under 1e-05 s⁻¹ and the “self-cleavage kobs at 2500 uM GlcN6P” value (glucosamine-6-phosphate [2]) was under 1e-05 s⁻¹. The “self-cleavage kobs at 10000 uM GlcN6P” value (glucosamine-6-phosphate [3]) was under 1e-05 s⁻¹.

For G35C G44A, the “self-cleavage kobs at 40 uM GlcN6P” value (glucosamine-6-phosphate [1]) was under 1e-05 s⁻¹ and the “self-cleavage kobs at 10000 uM GlcN6P” value (glucosamine-6-phosphate [3]) was under 1e-05 s⁻¹.

For C10A G43C, the “self-cleavage kobs at 40 uM GlcN6P” value (glucosamine-6-phosphate [1]) was under 1e-05 s⁻¹, the “self-cleavage kobs at 160 uM GlcN6P” value (glucosamine-6-phosphate [4]) was under 1e-05 s⁻¹ and the “self-cleavage kobs at 640 uM GlcN6P” value (glucosamine-6-phosphate [5]) was under 1e-05 s⁻¹. For the same variant, the “self-cleavage kobs at 10000 uM GlcN6P” value (glucosamine-6-phosphate [3]) was under 1e-05 s⁻¹.

G40A A48U C61G was tested, and the “self-cleavage kobs at 40 uM GlcN6P” value (glucosamine-6-phosphate [1]) was under 1e-05 s⁻¹ and the “self-cleavage kobs at 10000 uM GlcN6P” value (glucosamine-6-phosphate [3]) was under 1e-05 s⁻¹.

For A12C A36C U54G, the “self-cleavage kobs at 40 uM GlcN6P” value (glucosamine-6-phosphate [1]) was under 1e-05 s⁻¹.

In the case of A33U U46A U47G, the “self-cleavage kobs at 40 uM GlcN6P” value (glucosamine-6-phosphate [1]) is reported as under 1e-05 s⁻¹.

In the case of C8G C16U, the “self-cleavage kobs at 40 uM GlcN6P” value (glucosamine-6-phosphate [1]) is reported as under 1e-05 s⁻¹, the “self-cleavage kobs at 160 uM GlcN6P” value (glucosamine-6-phosphate [4]) is reported as under 1e-05 s⁻¹ and the “self-cleavage kobs at 640 uM GlcN6P” value (glucosamine-6-phosphate [5]) is reported as under 1e-05 s⁻¹. For the same variant, the “self-cleavage kobs at 2500 uM GlcN6P” value (glucosamine-6-phosphate [2]) was under 1e-05 s⁻¹ and the “self-cleavage kobs at 10000 uM GlcN6P” value (glucosamine-6-phosphate [3]) was under 1e-05 s⁻¹.

In the case of U31A C67A, the “self-cleavage kobs at 40 uM GlcN6P” value (glucosamine-6-phosphate [1]) is reported as 0.000109 ± 1.4e-05 s⁻¹, the “self-cleavage kobs at 160 uM GlcN6P” value (glucosamine-6-phosphate [4]) is reported as 0.000473 ± 8.4e-05 s⁻¹ and the “self-cleavage kobs at 640 uM GlcN6P” value (glucosamine-6-phosphate [5]) is reported as 0.000764 ± 0.00012 s⁻¹. For the same variant, the “self-cleavage kobs at 10000 uM GlcN6P” value (glucosamine-6-phosphate [3]) was 0.00388 ± 0.00061 s⁻¹.

— the supplement of paper PMC7125110
